The values that follow come from patent US20220372154A1 (APEXIGEN, published 2022).

For experiment [1], the target named is T1, human TNFR2 expressed on cells (human, UniProt P20333 23-461).
T1 sequence (looked up): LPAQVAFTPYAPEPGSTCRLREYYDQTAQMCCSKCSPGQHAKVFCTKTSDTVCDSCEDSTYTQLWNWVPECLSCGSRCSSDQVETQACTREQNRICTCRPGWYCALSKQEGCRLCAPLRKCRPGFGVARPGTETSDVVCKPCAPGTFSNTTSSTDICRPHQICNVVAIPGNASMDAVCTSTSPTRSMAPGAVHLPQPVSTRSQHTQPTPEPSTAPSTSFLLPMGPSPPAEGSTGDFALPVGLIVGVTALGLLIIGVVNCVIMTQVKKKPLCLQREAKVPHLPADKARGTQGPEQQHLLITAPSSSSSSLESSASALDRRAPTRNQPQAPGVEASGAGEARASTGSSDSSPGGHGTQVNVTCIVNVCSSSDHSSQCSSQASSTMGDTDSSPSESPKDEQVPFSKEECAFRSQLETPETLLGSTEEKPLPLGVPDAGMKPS
Briefly: cell-based or functional assay.

Experiment [2] has as its target T2, cynomolgus TNFR2-His tagged protein (cynomolgus, UniProt A0A2K5VET2 132-366).
T2 construct: also called Cyno TNFR2; cynomolgus TNFR2 protein; not shown: His tag
T2 sequence: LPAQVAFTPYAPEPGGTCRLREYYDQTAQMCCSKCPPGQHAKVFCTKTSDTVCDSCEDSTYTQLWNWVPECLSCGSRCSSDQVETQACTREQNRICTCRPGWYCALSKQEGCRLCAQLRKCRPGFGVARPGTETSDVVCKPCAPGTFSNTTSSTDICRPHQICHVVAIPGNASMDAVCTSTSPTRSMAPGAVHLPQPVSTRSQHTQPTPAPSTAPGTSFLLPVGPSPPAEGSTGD
The experiment can be described thus: ELISA, cynomolgus TNFR2. A general note: ELISA stands for enzyme-linked immunosorbent assay.

The target of experiment [3] is T3, human TNFR2-His tagged protein (soluble) (human, UniProt P20333 23-257).
T3 construct: also called hTNFR2 (soluble); soluble TNFR2-His; not shown: His tag
T3 sequence (looked up): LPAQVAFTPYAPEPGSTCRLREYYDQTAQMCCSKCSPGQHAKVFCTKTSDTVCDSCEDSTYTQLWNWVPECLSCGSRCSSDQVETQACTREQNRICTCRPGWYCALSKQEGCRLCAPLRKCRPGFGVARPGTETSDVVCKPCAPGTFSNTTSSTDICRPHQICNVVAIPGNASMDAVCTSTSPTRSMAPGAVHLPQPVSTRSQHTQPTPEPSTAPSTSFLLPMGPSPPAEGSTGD
The experiment can be described thus: ELISA, soluble human TNFR2.

The target in experiment [4] is T4, TNFR2 (as used in the Octet measurement) (UniProt P20333 23-257, limits assumed).
T4 construct: Probably human soluble TNFR2; the legend says only TNFR2
T4 sequence (looked up): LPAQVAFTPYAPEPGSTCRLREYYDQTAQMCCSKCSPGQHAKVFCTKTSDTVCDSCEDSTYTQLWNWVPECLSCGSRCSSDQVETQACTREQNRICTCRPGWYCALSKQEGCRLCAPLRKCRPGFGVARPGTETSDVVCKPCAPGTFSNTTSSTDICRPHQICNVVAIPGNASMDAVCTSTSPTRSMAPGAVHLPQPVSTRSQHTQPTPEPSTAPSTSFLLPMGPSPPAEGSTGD
The experiment can be described thus: Octet (BLI), monovalent binding. On the technique in general: In BLI a coated tip is dipped into the sample, and binding shifts an interference pattern.

Experiment [5] deals with T5, TNFR-Fc (UniProt P20333 23-257, limits assumed).
T5 construct: Printed only as TNFR-Fc; not shown: Fc part
T5 sequence (looked up): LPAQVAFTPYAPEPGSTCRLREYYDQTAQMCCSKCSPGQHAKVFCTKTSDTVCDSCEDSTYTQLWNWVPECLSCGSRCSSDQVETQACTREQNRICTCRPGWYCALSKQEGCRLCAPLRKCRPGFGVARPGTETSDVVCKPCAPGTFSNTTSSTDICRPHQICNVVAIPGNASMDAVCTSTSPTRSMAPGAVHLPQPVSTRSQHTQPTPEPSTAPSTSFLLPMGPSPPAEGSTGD
The experiment can be described thus: TNF-α blocking ELISA (soluble).

Experiment [6] deals with T6, death receptor 6 (DR6) (UniProt O75509 42-349, limits assumed).
T6 sequence (looked up): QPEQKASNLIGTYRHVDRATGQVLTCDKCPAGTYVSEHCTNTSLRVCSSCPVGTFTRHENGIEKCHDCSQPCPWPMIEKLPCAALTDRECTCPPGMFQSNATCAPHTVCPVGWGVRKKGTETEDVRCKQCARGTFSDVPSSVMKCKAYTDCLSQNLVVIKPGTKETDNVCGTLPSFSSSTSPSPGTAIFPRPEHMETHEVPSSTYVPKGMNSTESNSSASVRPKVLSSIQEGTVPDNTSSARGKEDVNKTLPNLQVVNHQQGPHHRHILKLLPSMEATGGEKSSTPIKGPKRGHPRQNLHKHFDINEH
The experiment can be described thus: ELISA on coated DR6, OD 650 nm. On the procedure:
(§1) To test binding to TNFR family members, target proteins were coated on ELISA plates at 1 μg/mL at 4° C. overnight. Plates were washed, blocked, and antibodies were added at indicated concentrations for 1 hour at RT. Positive control antibodies for each protein were used at ˜1 ug/mL. Antibodies were washed and detected with anti-human IgG HRP for 1 hour. Assay was developed using TMB substrate for 10 minutes. For cell-binding, human CD4+ T cells purified from buffy coats were cultured in flat-bottom plates with anti-CD3/CD28 for 24 hours. Cells were harvested and stained for viability, CD4, CD25 and FOXP3. Test antibody staining was detected using anti-human IgG APC. Binding titration of test antibodies was evaluated on CD4+CD25hiFOXP3+ regulatory T cells and plotted as percent binding.

Experiment [7] deals with T7, osteoprotegerin (OPG) (UniProt O00300 22-401, limits assumed).
T7 sequence (looked up): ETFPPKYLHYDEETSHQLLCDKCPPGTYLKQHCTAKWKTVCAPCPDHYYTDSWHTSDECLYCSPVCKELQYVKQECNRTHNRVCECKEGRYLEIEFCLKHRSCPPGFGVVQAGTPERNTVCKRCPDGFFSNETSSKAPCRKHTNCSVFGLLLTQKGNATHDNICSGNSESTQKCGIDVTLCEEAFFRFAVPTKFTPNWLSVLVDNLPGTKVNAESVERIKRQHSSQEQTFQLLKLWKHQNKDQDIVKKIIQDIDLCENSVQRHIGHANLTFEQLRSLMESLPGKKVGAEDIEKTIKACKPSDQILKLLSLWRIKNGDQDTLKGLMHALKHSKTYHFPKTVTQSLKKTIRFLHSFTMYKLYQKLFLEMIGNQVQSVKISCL
The experiment can be described thus: ELISA on coated OPG, OD 650 nm. As to the method:
as §1

Experiment [8] deals with T8, herpesvirus entry mediator (HVEM) (UniProt Q92956 39-202, limits assumed).
T8 sequence (looked up): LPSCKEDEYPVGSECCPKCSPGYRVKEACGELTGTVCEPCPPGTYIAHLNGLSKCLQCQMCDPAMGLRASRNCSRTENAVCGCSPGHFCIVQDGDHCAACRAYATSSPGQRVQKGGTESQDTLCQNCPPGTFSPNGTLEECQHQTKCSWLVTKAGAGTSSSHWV
The experiment can be described thus: ELISA on coated HVEM, OD 650 nm. On the procedure:
as §1

Experiment [9] has as its target CD40 (UniProt P25942 21-193, limits assumed). Briefly: ELISA on coated CD40, OD 650 nm. As to the method:
as §1

For experiment [10], the target named is T9, human TNFR1-His tagged protein (human, UniProt P19438 30-211, limits assumed).
T9 construct: also called soluble human TNFR1; not shown: His tag
T9 sequence (looked up): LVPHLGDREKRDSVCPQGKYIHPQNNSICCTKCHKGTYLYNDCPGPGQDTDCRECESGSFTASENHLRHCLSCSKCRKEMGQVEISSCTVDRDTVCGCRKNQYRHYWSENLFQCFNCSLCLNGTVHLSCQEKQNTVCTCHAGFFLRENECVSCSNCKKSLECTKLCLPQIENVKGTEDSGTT
The experiment can be described thus: ELISA on coated TNFR1, OD 450 nm. On the procedure: as §1

Experiment [11] addresses T1, human TNFR2 expressed on cells. Briefly: flow cytometry, cell-expressed human TNFR2. (In general: In flow cytometry, cells or beads pass a laser one at a time.)
Experiment [12] addresses T3, human TNFR2-His tagged protein (soluble). Briefly: ELISA on coated hTNFR2-His, OD 450 nm.
The target of experiment [13] is T1, human TNFR2 expressed on cells. The experiment can be described thus: cell binding on TNFR2-overexpressing (OE) cells.
For experiment [14] the target is unchanged. The experiment can be described thus: blocking of biotinylated TNF-α on TNFR2-CHO cells, flow cytometry. As to the method:
TNFR2-overexpressing CHO cells were plated at 100,000 cells per well. Cells were incubated with the indicated antibodies for 30 minutes on ice. […] Cells were analyzed using Cytoflex or MACSQuant flow cytometer. Assay was repeated twice.

The target is the same in experiment [15]. The experiment can be described thus: flow cytometry on cells expressing human TNFR2, MFI median.
Experiment [16] shares this target. Briefly: Primary Cell Affinity; binding titration on activated human Tregs, flow cytometry. As to the method: as §1

CD40, sequence (P25942 21-193 limits assumed): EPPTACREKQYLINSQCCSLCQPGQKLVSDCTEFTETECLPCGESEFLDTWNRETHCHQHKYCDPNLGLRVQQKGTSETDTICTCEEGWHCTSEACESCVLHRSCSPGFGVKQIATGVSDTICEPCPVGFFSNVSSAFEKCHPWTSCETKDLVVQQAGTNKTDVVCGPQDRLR

B1: humanized antibody h600-25-108 (antibody, V domains shown)
VH: EVQLVESGGGLVQPGGSLRLSCAASGFSLSDYFMTWVRQAPGKGLEWVGIINTGGDSYYATWAKGRFTISRDNSKNTLYLQMNSLRAEDTAVYYCARDTGYGGYDYAGSFDPWGQGTLVTVSS
VL: DIQMTQSPSSVSASVGDRVTITCQASENINSWLAWYQQKPGKAPKLLIYEASKLASGVPSRFSGSGSGTDFTLTISSLQPEDFATYYCQQGYIYIDVGNIFGGGTKVEIK
In general, EC50 refers to the concentration giving half of the maximal effect. In general, koff refers to the rate constant with which the complex falls apart. A high value points to fast dissociation. Usually kon stands for the rate constant with which the complex forms. High values mean faster complex formation, low ones slower complex formation. As a reminder, the IC50 is the concentration that gives 50% inhibition. A low value points to greater potency in that assay. In general, EC50 (read off the curve) refers to the concentration that produces a half-maximal response. Read a high EC50 (read off the curve) as weaker potency. The term Kd denotes the concentration at which binding is half-saturated. A lower Kd goes with a tighter complex. Take B1: the “ADCC EC50 (reporter line)” value in [1] stood at 1.14 nM. Also, in experiment [1], the “ADCP EC50” value came out at 0.92 nM. Moreover, the EC50 came to 0.046 nM in experiment [2], 0.105 nM in experiment [3] and 0.31 nM in experiment [11]. This molecule also had a koff in experiment [4] of 0.000233 s⁻¹. The molecule also had a kon in experiment [4] of 376000 M⁻¹ s⁻¹. In addition, the IC50 came out at 1.33 nM in [5] and 0.198 nM in experiment [14]. Moreover, the binding result in experiment [6], in experiment [7], in experiment [8], in experiment [9] and in experiment [10] was “no binding (tested: about 67 nM)” in each case. For the same molecule, the “EC50 (read off the curve)” value is ~0.1 nM in experiment [12] and ~0.3 nM in experiment [15]. Further, the Kd in experiment [13] is 0.0994 nM; in [16], 0.05 nM.
